In patent US20110076723A1, “ANTIBODY-PEPTIDE FUSED SYNERGIBODY” (SAMSUNG ELECTRONICS CO., LTD., priority 2008, published 2011):

Test system: HUVEC
Assay: Cell-based functional assay, endothelial cell tube formation (BD BioCoat Angiogenesis System)
Set-up: species or system human
Conditions: 5 μM fused protein synergibody, 18 hours; unrelated control group 12,227 ± 1,232
Experimental: Chimeric antibodies may be screened by functional assays such as cell-based assay for inhibition activity. In this example, BD BioCoat™ Angiogenesis System-Endothelial Cell Tube Formation (BD Biosciences) is used. BD Falcon 96-well Black/Clear plate coated with BD Matrigel Matrix that had been stored at −20° C. is slowly melted at 4° C. for 6 hours, and the mat cover of the plate is removed inside a sterile clean bench. Then it is left at 37° C. , 5% CO2 for 30 minutes so that the Matrigel™ Matrix would form polymers. Then it is made into a suspension by treating HUVEC, cultured on a petridish containing EGM-2 MV (Lonza) medium added with 10% fetal bovine serum to 70 to 80% confluence, with 0.5% Trypsin-EDTA (Gibco). Then it is resuspended in a culture medium containing 10% fetal bovine serum to a cell concentration of 4×10^5 cells/ml. At this time, 5 μM of each anti-Ang-2 chimeric antibodies expressed and purified in Section 5 above are also added and resuspended. Then 50 μl (about 2×10^4 cells) of each of the suspension is added to each well of the plate and incubated at 37° C. , 5% CO2 for 18 hours. Then the medium is removed and each well is washed twice with 100 μl of Hanks' balanced salt solution (HBSS, Invitrogen) ensuring that the tubes of the cells formed on BD Matrigel™ Matrix are not damaged. 50 μl of calcein AM (BD sciences) dissolved in HBSS at the concentration of 8 μg/ml is added to each well. The plate is then left to react at 37° C., 5% CO2 for 30 minutes and the calcein AM (BD sciences) solution is removed and washed twice with HBSS. Lastly, an image of the length of the entire tube of HUVEC formed on BD Matrigel™ Matrix is obtained on a fluorescent microscope and analyzed by using MetaMorph® software (Universal Imaging Corporation™, http://www.moleculardevices.com).
The peptides synthesized in Section 6A above are screened by cell-based functional assay for inhibition activity. The method described in Example 1, Section 7 is used, except that 5 μM synthesized peptides are added instead of anti-Ang-2 antibodies.
The fused protein synergibodies prepared in Section 1 above are screened using cell-based functional assay for inhibition activity. The method described in Example 1, Section 7 is used, except that, in this example, 5 μM of fused protein synergibodies are added instead of anti-Ang-2 antibodies.

B1: Syn-Ang-VEGFR-15: fused protein synergibody SAITAng-2-3 × DTN11VEGFR-2-5, peptide at C-terminal of heavy chain (protein)
heavy (part 1 of 2): DVQLVESGGGLVQPGGSRKLSCAASGFTFSSFGMHWVRQAPEKGLEWVAYISSDSSTIYYADTVKGRFTISRDNPKNTLFLQMTSLRSEDTAMYYCAREGGYDDYYAMDYWGQGTSVTVSS
heavy (part 2 of 2): PGSQGYCHLNMRYQWICDSE
light: DIQMTQSPASQSASLGESVTITCLASQTIGTWLAWYQQKPGKSPQLLIYAATSLADGVPSRFSGSGSGTKFSFKISSLQAEDFVSYYCQQLYSIPLTFGGGTKLEIK
modifications: left off: a dimerising Fc or GST
notes: fused protein synergibody SAITAng-2-3 × DTN11VEGFR-2-5, peptide at C-terminal of heavy chain
Question: With B1 as the molecule, how does the “Length of entire tube of HUVEC (2 × 10^4 cells) (pixels)” value (“Length of entire tube of HUVEC” for short) read?
Answer: Its value is 4,116 ± 815 pixels.

B2: Syn-Ang-VEGFR-16: fused protein synergibody SAITAng-2-4 × DTN6VEGFR-2-1, peptide at C-terminal of heavy chain (protein)
heavy (part 1 of 2): QVQLQQSGAELARPGASVKLSCKASGYTFTDYYINWAKQRTGQGLEWIGEIYPGSGDTYYNEKFKGKATLTADKSSSTAYMQLSSLTSEDSAVYFCARYGYKGVYFDYWGQSTTLTVSS
heavy (part 2 of 2): TGSDDLCYTFPCMHY
light: ENVLTQSPAIMAASLGQKVTMTCSASSSVSSSYLHWYQQKSGASPKPLIHRTSNLASGVPARFSGSGSGTSYSLTISSVEAEDDATYYCQQWSGYPFTFGAGTKLELK
modifications: left off: a dimerising Fc or GST
notes: fused protein synergibody SAITAng-2-4 × DTN6VEGFR-2-1, peptide at C-terminal of heavy chain
Question: B2 was tested. Which “Length of entire tube of HUVEC” value did it give?
Answer: The value was 5,022 ± 809 pixels.

B3: Syn-Ang-VEGFR-18: fused protein synergibody SAITAng-2-4 × DTN9VEGFR-2-3, peptide at C-terminal of heavy chain (protein)
heavy (part 1 of 2): QVQLQQSGAELARPGASVKLSCKASGYTFTDYYINWAKQRTGQGLEWIGEIYPGSGDTYYNEKFKGKATLTADKSSSTAYMQLSSLTSEDSAVYFCARYGYKGVYFDYWGQSTTLTVSS
heavy (part 2 of 2): EAGAYWCKAWGLSPCLVT
light: ENVLTQSPAIMAASLGQKVTMTCSASSSVSSSYLHWYQQKSGASPKPLIHRTSNLASGVPARFSGSGSGTSYSLTISSVEAEDDATYYCQQWSGYPFTFGAGTKLELK
modifications: left off: a dimerising Fc or GST
notes: fused protein synergibody SAITAng-2-4 × DTN9VEGFR-2-3, peptide at C-terminal of heavy chain
Question: How did the “Length of entire tube of HUVEC” value turn out when B3 was run?
Answer: The value was 5,723 ± 736 pixels.

B4: Syn-Ang-VEGFR-17: fused protein synergibody SAITAng-2-4 × DTN8VEGFR-2-2, peptide at C-terminal of heavy chain (protein)
heavy (part 1 of 2): QVQLQQSGAELARPGASVKLSCKASGYTFTDYYINWAKQRTGQGLEWIGEIYPGSGDTYYNEKFKGKATLTADKSSSTAYMQLSSLTSEDSAVYFCARYGYKGVYFDYWGQSTTLTVSS
heavy (part 2 of 2): EAGKETCGYEWQYCPRP
light: ENVLTQSPAIMAASLGQKVTMTCSASSSVSSSYLHWYQQKSGASPKPLIHRTSNLASGVPARFSGSGSGTSYSLTISSVEAEDDATYYCQQWSGYPFTFGAGTKLELK
modifications: left off: a dimerising Fc or GST
notes: fused protein synergibody SAITAng-2-4 × DTN8VEGFR-2-2, peptide at C-terminal of heavy chain
Question: With B4 as the molecule, how does the “Length of entire tube of HUVEC” value read?
Answer: The value was 5,215 ± 714 pixels.

B5: Syn-Ang-VEGFR-19: fused protein synergibody SAITAng-2-4 × DTN10VEGFR-2-4, peptide at C-terminal of heavy chain (protein)
heavy (part 1 of 2): QVQLQQSGAELARPGASVKLSCKASGYTFTDYYINWAKQRTGQGLEWIGEIYPGSGDTYYNEKFKGKATLTADKSSSTAYMQLSSLTSEDSAVYFCARYGYKGVYFDYWGQSTTLTVSS
heavy (part 2 of 2): TGSGRMCDGSGPPTNCWFT
light: ENVLTQSPAIMAASLGQKVTMTCSASSSVSSSYLHWYQQKSGASPKPLIHRTSNLASGVPARFSGSGSGTSYSLTISSVEAEDDATYYCQQWSGYPFTFGAGTKLELK
modifications: left off: a dimerising Fc or GST
notes: fused protein synergibody SAITAng-2-4 × DTN10VEGFR-2-4, peptide at C-terminal of heavy chain
Question: For B5, which “Length of entire tube of HUVEC” value is on record?
Answer: The value was 5,329 ± 822 pixels.
